Among the data in publication PMC6238616 are response values, retold here.

For test [1], the target named is synaptotagmin binding cytoplasmic RNA interacting protein (SYNCRIP), wild type, LUMIER fusion. The experiment in a line: LUMIER. Particulars: read off a plot.
For test [2], the target named is SMN1, wild type, LUMIER fusion (UniProt Q16637). The experiment in a line: LUMIER. Particulars: parent: est. 120000; read off a plot.
SMN1, wild type, LUMIER fusion (UniProt Q16637), sequence (Q16637 whole entry, the tested form may be a part): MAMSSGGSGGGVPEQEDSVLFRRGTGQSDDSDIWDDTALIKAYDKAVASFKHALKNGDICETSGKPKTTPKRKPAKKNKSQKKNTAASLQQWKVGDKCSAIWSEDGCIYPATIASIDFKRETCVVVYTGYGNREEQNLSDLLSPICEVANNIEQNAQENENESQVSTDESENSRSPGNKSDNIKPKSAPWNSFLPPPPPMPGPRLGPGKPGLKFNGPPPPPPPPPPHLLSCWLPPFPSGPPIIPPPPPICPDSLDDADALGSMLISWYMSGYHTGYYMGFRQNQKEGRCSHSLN

SMN1, wild type, LUMIER fusion (from UniProt Q16637) SMN1 DD MT, sequence (Q16637 whole entry, change not shown, the tested form may be a part): as the sequence (Q16637 whole entry, the tested form may be a part) above

As to “SMN1, wild type, LUMIER fusion (from UniProt Q16637) Y127L”, in test [1] (parent: est. 180000), the response was found to be 91000 RU.

Consider “PHF1, wild type, LUMIER fusion (from UniProt O43189) Y47A”, for which the response in test [1] (parent: est. 100000) is 32000 RU.

Turning to “SMN1, wild type, LUMIER fusion (from UniProt Q16637) SMN1 DD MT”, the response in test [2] came to 37000 RU; in test [1] (parent: est. 180000) it was 110000 RU.
